Experimental data: patent US20140274782A1, “AFFINITY REAGENTS AND METHODS FOR DETECTION, PURIFICATION, AND PROTEOMIC ANALYSIS OF METHYLATED PROTEINS” (The Board of Trustees of the Leland Stanford Junior …, priority 2013, published 2014)

T1: G9a and GLP (Homo sapiens, UniProt Q96KQ7+Q9H9B1)
T1 sequence (Q96KQ7 2-1210 limits assumed): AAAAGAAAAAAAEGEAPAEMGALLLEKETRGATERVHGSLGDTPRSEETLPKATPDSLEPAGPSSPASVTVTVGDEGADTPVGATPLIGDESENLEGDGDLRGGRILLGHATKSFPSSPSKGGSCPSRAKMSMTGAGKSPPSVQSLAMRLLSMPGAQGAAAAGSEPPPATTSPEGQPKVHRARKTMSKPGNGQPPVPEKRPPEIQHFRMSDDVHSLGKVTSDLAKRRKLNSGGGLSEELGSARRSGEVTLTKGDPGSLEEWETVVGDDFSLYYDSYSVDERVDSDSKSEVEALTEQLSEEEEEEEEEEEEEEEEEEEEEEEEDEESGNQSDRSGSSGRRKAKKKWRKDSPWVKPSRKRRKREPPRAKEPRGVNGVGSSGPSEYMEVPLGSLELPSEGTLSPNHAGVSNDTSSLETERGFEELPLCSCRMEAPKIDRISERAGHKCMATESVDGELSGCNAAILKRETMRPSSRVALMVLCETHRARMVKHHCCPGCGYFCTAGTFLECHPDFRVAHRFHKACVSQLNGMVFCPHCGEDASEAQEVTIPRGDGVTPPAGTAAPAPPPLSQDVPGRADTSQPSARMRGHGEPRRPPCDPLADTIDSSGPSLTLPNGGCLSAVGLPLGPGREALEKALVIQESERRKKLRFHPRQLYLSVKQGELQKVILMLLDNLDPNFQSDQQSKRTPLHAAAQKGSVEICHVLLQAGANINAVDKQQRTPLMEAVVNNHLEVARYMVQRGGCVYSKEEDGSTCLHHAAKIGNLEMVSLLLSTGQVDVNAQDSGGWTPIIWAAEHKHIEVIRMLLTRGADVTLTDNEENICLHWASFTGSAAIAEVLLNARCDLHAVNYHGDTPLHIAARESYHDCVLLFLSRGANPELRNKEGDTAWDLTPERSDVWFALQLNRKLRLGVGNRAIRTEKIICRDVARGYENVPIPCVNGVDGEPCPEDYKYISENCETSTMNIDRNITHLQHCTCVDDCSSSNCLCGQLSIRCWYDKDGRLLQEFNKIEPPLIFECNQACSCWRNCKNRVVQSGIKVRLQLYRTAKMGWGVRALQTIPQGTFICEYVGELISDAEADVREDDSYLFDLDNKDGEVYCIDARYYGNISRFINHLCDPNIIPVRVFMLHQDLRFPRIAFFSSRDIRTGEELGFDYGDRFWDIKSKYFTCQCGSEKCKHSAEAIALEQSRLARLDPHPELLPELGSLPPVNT
T1 sequence (Q9H9B1 2-1298 limits assumed): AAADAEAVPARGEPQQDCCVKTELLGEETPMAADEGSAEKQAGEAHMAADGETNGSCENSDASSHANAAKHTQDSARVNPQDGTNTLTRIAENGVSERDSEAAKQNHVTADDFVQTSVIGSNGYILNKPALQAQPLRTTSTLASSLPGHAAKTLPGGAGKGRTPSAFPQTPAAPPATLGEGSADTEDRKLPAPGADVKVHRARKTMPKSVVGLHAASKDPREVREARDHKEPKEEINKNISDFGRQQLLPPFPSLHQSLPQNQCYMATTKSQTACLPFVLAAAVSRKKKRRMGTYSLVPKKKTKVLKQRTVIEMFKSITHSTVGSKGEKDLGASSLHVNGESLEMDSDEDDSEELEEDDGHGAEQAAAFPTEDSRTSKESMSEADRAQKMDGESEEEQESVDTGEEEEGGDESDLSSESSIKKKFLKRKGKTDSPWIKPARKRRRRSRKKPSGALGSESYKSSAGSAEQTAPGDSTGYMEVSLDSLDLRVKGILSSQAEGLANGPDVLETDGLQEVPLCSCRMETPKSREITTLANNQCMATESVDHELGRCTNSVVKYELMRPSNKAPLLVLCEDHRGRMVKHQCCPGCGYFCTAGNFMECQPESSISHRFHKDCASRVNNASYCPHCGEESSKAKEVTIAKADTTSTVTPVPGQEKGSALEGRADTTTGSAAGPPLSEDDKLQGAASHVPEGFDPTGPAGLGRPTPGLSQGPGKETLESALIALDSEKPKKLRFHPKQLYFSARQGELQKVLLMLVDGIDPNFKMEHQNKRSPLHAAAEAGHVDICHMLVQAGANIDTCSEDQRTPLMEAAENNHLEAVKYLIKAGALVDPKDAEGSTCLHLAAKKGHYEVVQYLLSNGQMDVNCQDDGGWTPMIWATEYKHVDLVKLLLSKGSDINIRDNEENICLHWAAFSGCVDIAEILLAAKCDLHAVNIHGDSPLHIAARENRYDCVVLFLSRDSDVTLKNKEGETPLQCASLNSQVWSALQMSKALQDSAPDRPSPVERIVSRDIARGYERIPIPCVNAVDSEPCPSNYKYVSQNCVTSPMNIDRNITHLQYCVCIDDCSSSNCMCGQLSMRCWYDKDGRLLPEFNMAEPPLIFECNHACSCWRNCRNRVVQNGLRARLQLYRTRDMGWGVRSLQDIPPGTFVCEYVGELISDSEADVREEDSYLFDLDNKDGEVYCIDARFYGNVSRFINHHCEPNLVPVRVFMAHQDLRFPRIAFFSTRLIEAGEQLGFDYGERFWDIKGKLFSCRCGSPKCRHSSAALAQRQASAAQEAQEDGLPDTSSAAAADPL


Legend:
G9a and GLP = biological target: T1, G9a and GLP; experiment: Triple SILAC pull-down after UNC0638 treatment of 293T cells, DMSO/UNC0638 ratio of protein captured by 3×MBT; assay type: cell-based; design: cells were treated for 24 hours with UNC0638 at 2.5 μM or DMSO vehicle control; endogenous in cells; host or cells: HEK 293T; settings: for Relative to UNC0638 UNC Heavy / Relative to UNC0638 UNC Light: SILAC ratio DMSO/UNC0638 of protein pulled down with 3xMBT; for Relative to UNC0638 UNC Heavy: UNC0638 in heavy SILAC media; for Relative to UNC0638 UNC Light: UNC0638 in light SILAC media; for Relative to UNC0638 Average: average of UNC Light and UNC Heavy experiments;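 on all read-outs here: mass spectrometry (Q-Exactive) SILAC quantitation, DMSO/UNC0638 ratio computed after subtracting 3×MBTD355N mutant pull-down background, only proteins with at least twofold 3×MBT over mutant signal considered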
3×MBT domain of L3MBTL1 = experiment: Triple SILAC pull-down, 3xMBT/3xMBTD355N ratio (cytoplasmic, nuclear and chromatin fractions of 293T cells); assay type: binding, human; settings: SILAC ratio, pull-down 3xMBT vs 3xMBTD355N; for 3xMBT/D355N UNC Heavy: experiment with UNC0638 in heavy SILAC media; for 3xMBT/D355N UNC Light: experiment with UNC0638 in light SILAC media;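 on all read-outs here: proteins quantified with MaxQuant, requiring at least two unique peptides and quantification in both label directions, normalized to the mean of proteins from a digested loading control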

| Molecule | Relative to UNC0638 UNC Heavy (G9a and GLP) | Relative to UNC0638 UNC Light (G9a and GLP) | Relative to UNC0638 Average (G9a and GLP) | 3xMBT/D355N UNC Heavy (3×MBT domain of L3MBTL1) | 3xMBT/D355N UNC Light (3×MBT domain of L3MBTL1) |
| --- | --- | --- | --- | --- | --- |
| U2AF2 (protein, UniProt P26368 2-475, looked up) Splicing factor U2AF 65 kDa …: SDFDEFERQLNENKQERDKENRHRKRSHSRSRSRDRKRRSRSRDRRNRDQRSASRDRRRRSKPLTRGAKEEHGGLIRSPRHEKKKKVRKYWDVPPPGFEHITPMQYKAMQAAGQIPATALLPTMTPDGLAVTPTPVPVVGSQMTRQARRLYVGNIPFGITEEAMMDFFNAQMRLGGLTQAPGNPVLAVQINQDKNFAFLEFRSVDETTQAMAFDGIIFQGQSLKIRRPHDYQPLPGMSENPSVYVPGVVSTVVPDSAHKLFIGGLPNYLNDDQVKELLTSFGPLKAFNLVKDSATGLSKGYAFCEYVDINVTDQAIAGLNGMQLGDKKLLVQRASVGAKNATLVSPPSTINQTPVTLQVPGLMSSQVQMGGHPTEVLCLMNMVLPEELLDDEEYEEIVEDVRDECSKYGLVKSIEIPRPVDGVEVPGCGKIFVEFTSVFDCQKAMQGLTGRKFANRVVVTKYCDPDSYHRRDFW | 0.14 log base 2 | 0.20 log base 2 | 0.17 log base 2 | 2.86 log base 2 | 2.60 log base 2 |
| PALLD (protein, UniProt Q8WX93 1-1383, looked up) Palladin: MSGTSSHESFYDSLSDMQEESKNTDFFPGLSAFLSQEEINKSLDLARRAIADSETEDFDSEKEISQIFSTSPASLCEHPSHKETKLGEHASRRPQDNRSTPVQPLAEKQTKSISSPVSKRKPAMSPLLTRPSYIRSLRKAEKRGAKTPSTNVKPKTPHQRKGGPQSQLCDKAANLIEELTSIFKAAKPRNRSPNGESSSPDSGYLSPKNQPSALLSASASQSPMEDQGEMEREVKSPGARHCYQDNQDLAVPHNRKSHPQPHSALHFPAAPRFIQKLRSQEVAEGSRVYLECRVTGNPTPRVRWFCEGKELHNTPDIQIHCEGGDLHTLIIAEAFEDDTGRYTCLATNPSGSDTTSAEVFIEGASSTDSDSESLAFKSRAGAMPQAQKKTTSVSLTIGSSSPKTGVTTAVIQPLSVPVQQVHSPTSYLCRPDGTTTAYFPPVFTKELQNTAVAEGQVVVLECRVRGAPPLQVQWFRQGSEIQDSPDFRILQKKPRSTAEPEEICTLVIAETFPEDAGIFTCSARNDYGSATSTAQLVVTSANTENCSYESMGESNNDHFQHFPPPPPILETSSLELASKKPSEIQQVNNPELGLSRAALQMQFNAAERETNGVHPSRGVNGLINGKANSNKSLPTPAVLLSPTKEPPPLLAKPKLDPLKLQQLQNQIRLEQEAGARQPPPAPRSAPPSPPFPPPPAFPELAACTPPASPEPMSALASRSAPAMQSSGSFNYARPKQFIAAQNLGPASGHGTPASSPSSSSLPSPMSPTPRQFGRAPVPPFAQPFGAEPEAPWGSSSPSPPPPPPPVFSPTAAFPVPDVFPLPPPPPPLPSPGQASHCSSPATRFGHSQTPAAFLSALLPSQPPPAAVNALGLPKGVTPAGFPKKASRTARIASDEEIQGTKDAVIQDLERKLRFKEDLLNNGQPRLTYEERMARRLLGADSATVFNIQEPEEETANQEYKVSSCEQRLISEIEYRLERSPVDESGDEVQYGDVPVENGMAPFFEMKLKHYKIFEGMPVTFTCRVAGNPKPKIYWFKDGKQISPKSDHYTIQRDLDGTCSLHTTASTLDDDGNYTIMAANPQGRISCTGRLMVQAVNQRGRSPRSPSGHPHVRRPRSRSRDSGDENEPIQERFFRPHFLQAPGDLTVQEGKLCRMDCKVSGLPTPDLSWQLDGKPVRPDSAHKMLVRENGVHSLIIEPVTSRDAGIYTCIATNRAGQNSFSLELVVAAKEAHKPPVFIEKLQNTGVADGYPVRLECRVLGVPPPQIFWKKENESLTHSTDRVSMHQDNHGYICLLIQGATKEDAGWYTVSAKNEAGIVSCTARLDVYTQWHQQSQSTKPKKVRPSASRYAALSDQGLDIKAAFQPEANPSHLTLNTALVESEDL | 0.26 log base 2 | 0.09 log base 2 | 0.17 log base 2 | 2.50 log base 2 | 2.31 log base 2 |
